Experiments:
Conditions in all cases: both partners purified
[1] = target: T1, Human Aβ(1–42)-HiLyte^TM-Fluor555 (human, UniProt P05067 672-713, HiLyte^TM-Fluor555 dye covalently bound to ASP1 (NH2-terminus amino acid)); assay: other fluorescence titration; His6 added to 10 nM Aβ(1–42) HiLyte-Fluor555 in solution; increase in dye fluorescence (ex 520 nm, em 567 nm) at the end of the kinetics (2000 s); 50 mM HEPES, 100 mM KCl, 50 µM CaCl2, pH 7.05, 24–25 °C
T1 construct: Amyloid β peptide Aβ(1–42), human, cut product of the amyloid precursor protein; numbers count on: the Aβ peptide; source: bought: AnaSpec

[2] = target: T1, Human Aβ(1–42)-HiLyte^TM-Fluor555; assay: other fluorescence titration; competition: 10 nM Aβ(1–42) HiLyte-Fluor555 preincubated 15 min with rising His6, then 5 nM CaM added; attenuation of the maximum fluorescence increase; 50 mM HEPES, 100 mM KCl, 50 µM CaCl2, pH 7.05, 24–25 °C
[3] = target: T1, Human Aβ(1–42)-HiLyte^TM-Fluor555; assay: other fluorescence titration; competition: 10 nM Aβ(1–42) HiLyte-Fluor555 preincubated 15 min with rising His6, then 5 nM calbindin-D28k added; attenuation of the maximum fluorescence increase; 50 mM HEPES, 100 mM KCl, 50 µM CaCl2, pH 7.05, 24–25 °C

B1: hexa-histidine peptide (His6) (peptide)
peptide: HHHHHH
notes: hexa-histidine; source: bought: Quimigen
EC50 [1]: 0.05 to 0.06 µM
IC50 [2]: ~1 µM
IC50 [3]: ~0.1 µM
